Experimental findings from PMC5159559 are described below.

First the molecules themselves.
T1: APRIN (PDS5B) (UniProt Q9NTI5 1-1447)
T1 sequence: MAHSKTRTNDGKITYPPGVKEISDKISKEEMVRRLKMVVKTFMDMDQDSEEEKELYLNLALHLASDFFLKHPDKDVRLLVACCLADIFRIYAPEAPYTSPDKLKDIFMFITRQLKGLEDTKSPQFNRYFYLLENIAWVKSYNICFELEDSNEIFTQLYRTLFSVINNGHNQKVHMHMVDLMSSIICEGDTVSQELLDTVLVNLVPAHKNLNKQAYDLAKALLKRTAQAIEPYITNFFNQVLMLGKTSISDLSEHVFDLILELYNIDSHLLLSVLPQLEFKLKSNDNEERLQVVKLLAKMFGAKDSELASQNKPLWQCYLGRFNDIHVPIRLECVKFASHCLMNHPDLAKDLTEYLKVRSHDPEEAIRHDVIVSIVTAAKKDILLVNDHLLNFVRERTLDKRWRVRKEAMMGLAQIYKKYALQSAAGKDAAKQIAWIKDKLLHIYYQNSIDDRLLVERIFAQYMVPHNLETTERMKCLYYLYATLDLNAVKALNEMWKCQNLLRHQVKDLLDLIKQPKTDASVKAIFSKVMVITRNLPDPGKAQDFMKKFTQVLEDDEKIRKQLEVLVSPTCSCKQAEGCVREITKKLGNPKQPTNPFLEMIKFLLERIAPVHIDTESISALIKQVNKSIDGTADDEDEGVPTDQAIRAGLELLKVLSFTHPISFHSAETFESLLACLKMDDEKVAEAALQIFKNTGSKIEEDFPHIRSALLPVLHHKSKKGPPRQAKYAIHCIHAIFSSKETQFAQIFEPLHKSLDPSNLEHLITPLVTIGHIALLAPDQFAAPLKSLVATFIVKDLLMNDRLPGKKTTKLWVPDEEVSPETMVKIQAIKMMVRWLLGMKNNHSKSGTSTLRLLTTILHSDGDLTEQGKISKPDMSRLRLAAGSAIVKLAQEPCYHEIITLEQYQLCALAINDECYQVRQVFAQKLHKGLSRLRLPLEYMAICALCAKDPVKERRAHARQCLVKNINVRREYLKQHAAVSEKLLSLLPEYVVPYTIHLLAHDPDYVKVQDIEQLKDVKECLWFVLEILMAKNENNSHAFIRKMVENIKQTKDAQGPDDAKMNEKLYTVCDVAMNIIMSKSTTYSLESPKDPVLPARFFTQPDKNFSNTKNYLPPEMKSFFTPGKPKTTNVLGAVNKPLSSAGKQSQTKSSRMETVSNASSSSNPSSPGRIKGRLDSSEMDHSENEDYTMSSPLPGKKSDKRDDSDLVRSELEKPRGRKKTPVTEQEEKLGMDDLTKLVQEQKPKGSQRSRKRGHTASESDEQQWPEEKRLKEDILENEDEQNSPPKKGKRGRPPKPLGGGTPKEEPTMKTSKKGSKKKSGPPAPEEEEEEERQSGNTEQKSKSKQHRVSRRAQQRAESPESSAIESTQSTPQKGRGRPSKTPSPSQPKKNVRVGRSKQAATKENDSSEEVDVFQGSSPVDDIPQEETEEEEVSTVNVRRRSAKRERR

B1: ssDNA (JYM925) (ssDNA)
DNA: GGGTGAACCTGCAGGTGGGCAAAGATGTCCTAGCAATGTAATCGTCAAGCTTTATGCCGT
B2: Splayed arms (JYM925/JYM926) (structured_DNA)
DNA 1: GGGTGAACCTGCAGGTGGGCAAAGATGTCCTAGCAATGTAATCGTCAAGCTTTATGCCGT
DNA 2: ACGCTGCCGAATTCTACCAGTGCCAGCGACGGACATCTTTGCCCACCTGCAGGTTCACCC
B3: dsDNA (JYM925/JYM945) (dsDNA)
DNA 1: GGGTGAACCTGCAGGTGGGCAAAGATGTCCTAGCAATGTAATCGTCAAGCTTTATGCCGT
DNA 2: ACGGCATAAAGCTTGACGATTACATTGCTAGGACATCTTTGCCCACCTGCAGGTTCACCC
B4: Holliday junction (JYM925/926/927/928) (structured_DNA)
DNA 1: GGGTGAACCTGCAGGTGGGCAAAGATGTCCTAGCAATGTAATCGTCAAGCTTTATGCCGT
DNA 2: ACGCTGCCGAATTCTACCAGTGCCAGCGACGGACATCTTTGCCCACCTGCAGGTTCACCC
DNA 3: ACGGCATAAAGCTTGACGATTACATTGCTACATGGAGCTGTCTAGAGGATCCGACTATCG
DNA 4: CGATAGTCGGATCCTCTAGACAGCTCCATGGTCGCTGGCACTGGTAGAATTCGGCAGCGT

This data set has as its target T1, APRIN (PDS5B). The data set is described as follows: EMSA. A general note: A gel shift assay detects complexes by their altered migration in electrophoresis.
Consider B1, for which the binding result is reported as “binds”.
Consider B2, for which the binding result is “binds”.
Turning to B3, the binding result is “no binding”.
Then B4, with “binds”.
